Data: publication doi:10.1101/2025.07.11.664054

Columns and labels:
Experiment in all cases: ITC
[1] = target: purified OsHIPP21-HMA (rice)
[2] = target: purified OsHPP09-HMA (rice)
[3] = target: purified OsHPP10-HMA (rice)
[4] = target: purified OsHPP11-HMA (rice)

**Q.** What does the source list for “recombinant AVR-Pia (from UniProt B9WZW9 1-85) (natural protein)”?
**A.** Kd [1]: 1.29 µM; Kd [2]: 0.115 µM; Kd [3]: 5.26 µM; Kd [4]: 0.772 µM
